Measurements taken from article PMC7255693 (2020).

T1: CapZ peptide (TAMRA-TRTK) 265-276 (Homo sapiens, UniProt P52907, not fully specified)
T1 chain: {TAMRA}-TRTKIDWNKILS-NH2


What was measured:
[1] = biological target: T1, CapZ peptide (TAMRA-TRTK) 265-276; test: fluorescence polarization titration
[2] = biological target: HDM4 peptide (TAMRA-HDM4 25-43) 25-43 (Homo sapiens), O15151

Kd [1] [nM] | Kd [2] [nM] | Binder
130 | – | S100B (protein) SELEKAMVALIDVFHQYSGREGDKHKLKKSELKELINNELSHFLEEIKEQEVVDKVMETLDNDGDGECDFQEFMAFVAMVTTACHEFFEHE
– | 3670 | S100A1, P23297 (protein) MGSELETAMETLINVFHAHSGKEGDKYKLSKKELKELLQTELSGFLDAQKDVDAVDKVMKELDENGDGEVDFQEYVVLVAALTVACNNFFWENS
